Source: paper PMC12297318, “Removal of promoter CpG methylation by epigenome editing reverses HBG silencing”

B1: HBG -53/-50 CpG sites, methylated (dsDNA)
DNA 1: TGAGGCCAGGGGCCGGCGGCTGGCTAGGGAT
DNA 2: ATCCCTAGCCAGCCGCCGGCCCCTGGCCTCA
modifications: 5-methyl-dC at positions 14 and 17 of sense and 14 and 17 of antisense
B2: HBG -53/-50 CpG sites, unmethylated (dsDNA)
DNA 1: B1 DNA 1
DNA 2: B1 DNA 2
B3: BCAT1 promoter CpG sites, methylated (dsDNA)
DNA 1: CCGGCCCTCTCGCGGCGGAGACTCGCGACCTAGCGGATTGCATCAGCAGGAAGAC
DNA 2: GTCTTCCTGCTGATGCAATCCGCTAGGTCGCGAGTCTCCGCCGCGAGAGGGCCGG
modifications: 5-methyl-dC at sense positions 2,11,13,16,24,26,34 and antisense positions 21,29,31,39,42,44,53
B4: BCAT1 promoter CpG sites, unmethylated (dsDNA)
DNA 1: B3 DNA 1
DNA 2: B3 DNA 2

What follows are binders tested against MBD2sc WT (MBD2 MBD-IDR-CC fused to GATAD2A CC) (UniProt Q9UBB5 150-393+Q86YP4:138-178, internal_change) (assay: EMSA; Protein at 50x molar excess over probe, 10 min at room temperature; binding buffer not stated (protein storage: 10 mM Tris-HCl pH 7.5, 150 mM NaCl, 1 mM EDTA, 1 mM PMSF, 10% glycerol); 6% native PAGE in TBE (45 mM Tris, 45 mM boric acid, 1 mM EDTA) at 4 C). Details: protein: recombinant; tags: pET32a vector tags (Ni-NTA purified); label: 32P 5' end of antisense strand; blunt.
Chain of MBD2sc WT (MBD2 MBD-IDR-CC fused to GATAD2A CC) (Q9UBB5 other isoform, or with tags, fused parts or gaps): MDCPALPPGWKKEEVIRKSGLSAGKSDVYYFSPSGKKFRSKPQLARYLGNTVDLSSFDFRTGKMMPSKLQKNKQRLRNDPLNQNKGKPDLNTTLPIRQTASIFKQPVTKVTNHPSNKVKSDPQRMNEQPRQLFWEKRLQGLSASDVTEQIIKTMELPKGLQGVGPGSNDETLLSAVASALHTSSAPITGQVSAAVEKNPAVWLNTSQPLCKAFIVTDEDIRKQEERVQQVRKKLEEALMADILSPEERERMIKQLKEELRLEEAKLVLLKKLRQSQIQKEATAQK

Row | Binder | binding result
1 | B1 | binds
2 | B2 | no binding
3 | B3 | binds
4 | B4 | no binding

What follows are binders tested against MBD2sc Y178F (UniProt Q9UBB5 150-393+Q86YP4:138-178, Y178F;internal_change) in the same assay as above. Details: protein: recombinant; tags: pET32a vector tags (Ni-NTA purified); label: 32P 5' end of antisense strand; blunt.
Chain of MBD2sc Y178F (Q9UBB5 other isoform, or with tags, fused parts or gaps Y178F/| Y178F Y178F): as the sequence (Q9UBB5 other isoform, or with tags, fused parts or gaps) above, with Y29F counted along it

Row | Binder | binding result
5 | B1 | no binding
6 | B3 | no binding
